Assay results taken from the supplement of paper PMC12042874.
± gives the uncertainty stated by the source.

experiment: amyloid nucleation score (Sup35N fusion, yeast selection) (log enrichment); library NNK3; higher = more nucleation; inactive = no reads after selection
Method in brief: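 Nucleation score: DiMSum log enrichment of output over input reads, centred on the mode score of non-aggregating sequences. Only sequences with at least 100 input reads were kept. Reads came from Illumina sequencing of plasmid inserts before and after 7 days of growth at 30°C without adenine and uracil, in psi-negative yeast expressing Sup35N fused to peptides of 20 random codons after 24 hours of induction with 100 μM copper sulfate.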

Amyloid nucleation score, -0.185 ± 0.51:
FFVYVEHRCSYNGRTSDIFY

Amyloid nucleation score, 0.407 ± 0.61:
FIDNRGSDSSTICCYNYAAQ

Amyloid nucleation score, -0.515 ± 0.66:
FFENWKLGDFAYRRIGTLLK

Amyloid nucleation score, 0.708 ± 0.15:
FFKFFWFSRRPISSFLGLCV

Amyloid nucleation score, 0.417 ± 0.19:
FCFFSVSLDVLVHSGIC

Amyloid nucleation score, 2.1 ± 0.056:
FFNVELLMIDCGFYEFHTDD

Amyloid nucleation score, 0.179 ± 0.3:
EWQSYYSKQRIGSGPFQLFC

Amyloid nucleation score, inactive:
ENTAYWDLSGRLANQLGWRL
ENYLSPTSKMTMIWGCILWW
EPCSLPTSGPMGMVGNIKSG
EPGILLM
EPQYDSYTGGVSAFVVLKEH
EQIGGI
ERALIDSHPGTWLRRMTVNR
ERMQHGSLSVRYFKKSSVSG
ERVNVVR
ESGNSSAFMAVMRISGTDVV
ESKTCVVHLSAKCSLSEERT
ESNVVPLNSHR
ESPAASMVLHRGRLVVCSLS
ESVRGRLFRV
ESWCM
ESYLQRPRTSTRMFVMRLKV
ETAYSASVRDT
ETDCRSAQSIC
ETSITHLGILAVLGCNNGSE
EVAWVYEYQL
EVFLIIIVKMVNGLSRESRC
EVMLYRQHHDVRHEHSGYLT
EVPTRLDKMNENCNREDSAP
EVSHSVEQYFSFMCHHTWAP
EVVSLLTFMLASLLSISVVN
EWTVNMNSYLLVSVAYGCGS
EYMCACSLEILVL
EYNPQLSRNSNDLYADELKE
FAFSNLTKPVFKI
FAKFAKSYNRPITVVLANCS
FALMFLSWYNRKSVSRPCTE
FAMMDELRRMWARSACSTRV
FANSY
FANYGEKIWCFGAMLGKRLS
FCAINP
FCFIHIFNHNSRTNF
FCFKSLALELPIQKY
FCFNGRCIFFYSSSLYVFGF
FCFRDIYKRSMSRSAYDSG
FCLFDFGILG
FCLFLSCGDKSILGA
FCRMVPLIEWSVTRFRDCVG
FCTPI
FDACLTERVVGISKDTDTSG
FDFWEDRVCPIYNCLGCGKL
FDGFLNFVITSRSNVF
FDRNSPTVLFRLRWEYF
FDVVVIYATGVCFLATYYQG
FECRQ
FEECGVGPYVTKREATWFNG
FESMGFHPRSVIYEYVCELN
FEWLMGRHLYISLRLHMRRS
FFANKYSLFAVVTMLANFLY
FFEFRSASYWGPSQYRNMCT
FFLPSG
FFNRGKVAETGFIWSMVVV
FFPAMRTCWGKSGCARPYA
FFRSCWCFVLLLNDCMITSL
FFRVYYRSTGGVNM
FFTRSNVLRSVCFSSPITLW
FFVLGRSTMSWLR
FFVLYRLRELPPAQLMMKAA
FFYDLMYLIMV
FFYSVLCLLRAVLVDSNLGW
FFYWSWVQPEPY
FFYYLRSVLHSSYLFRRDVI
FGFPTFFSMTV
FGGVGAW
FGIWFGRNLGVGMDTKMSRF
FGKGVCRLD
FGNLLVLSYDEDCNAATWVR
FGQCNQVCCSEWDKD
FGQVKSCLAPCKSAAKH
FGRSVDFMVIHFCTTY
FGSNTGYVIEGRLAVGFEKL
FGSSMYRMKPVDC
FGVSNRMWRKSRNLSGSPRA
FGYSLMLVTACVLRCQSLWS
FHGFLYSAFSSDG
FHIPLSQRCLAPFCNAHL
FHKKMCTWIDELVIAVQFRD
FHNFVRHIYAGGNRP
FHSAL
FHSQYEGAEERSPRNVLMAR
FIAFWCVNLRTL
FIEKAC
FIIVPKWSCFLVSSMKFRVV
FIVDVYICAVSLLVGFLDAE
FIVFTDF
FIVLCALLWFCLNWSDLLKF
FIWSAGGIITSHNCLYWQAS
FKLHCSDRYECTKDLSHLWC
FKLHIWSS
FKNCHGVVTRCQW
FKPWLYFGRPMAQLRDDCQV
FKQIVKTSFNLCFFIRCKRT
FKRCSSIVRGWSS
FKVWCVLSADIQF
FLCSTSLFVLVLMLTLTNTP
FLFIHKLTCLSLVKWTGFLV
FLFRNLVAWFMHSDLFFYGV
FLGFEYILIAFRVGQYYLTG
FLGTHEGTDRLLWCVIEEKG
FLIDDMYWSVMDTWI
FLILVGLGRIDLMGTIIKKR
FLIPYKRQIAQRRYVSLE
FLLRYWYKAVDSRHRYSQLI
FLLSVNQASNYGTWILWFYR
FLLVLWSVFLTGT
FLLVSLAA
FLLVTSRSEEAPLATETYRL
FLQAAYSGSRVAKCVSESSK
FLRLHLFHSWTISLSSYRSV
FLSCCKGCLCCCQRPLSIYY
FLSDSNT
FLSSCKLMGFMS
FLTDRPYRGCG
FLVNDYFV
FLVPTLHYYLGRWQKKPMLY
FLVRRGCP
FLVTYKISWRYKSQQLCSYY
FLWLYQDCVV
FLWSLLYIFIVCGFCNPSRR
FLYWVGSFEAEPV
FMKSRINIRIALWCF
FMLNVVDY

Amyloid nucleation score, 1.25 ± 0.14:
FGCQTGWRFRFINSNNR

Amyloid nucleation score, 0.929 ± 0.14:
FLINPFVWFNNYSFTAF

Amyloid nucleation score, 0.006 ± 0.56:
FHVSCSSFSKWNHENWHNLK

Amyloid nucleation score, 1.3 ± 0.15:
FFVFVR

Amyloid nucleation score, -0.661 ± 0.98:
FFYSYGRLNPKYDRVYISFG

Amyloid nucleation score, 0.698 ± 0.3:
FCGNLEATYRSRFRSNAHSA

Amyloid nucleation score, 0.835 ± 0.12:
ESYRTKFIVFGWGL

Amyloid nucleation score, 0.217 ± 0.25:
FIILQFVGFLHNTGFWYQLG

Amyloid nucleation score, 0.044 ± 0.41:
FGVYKLSWNP

Amyloid nucleation score, 0.077 ± 0.87:
FGIKFVIQVDCRHIMHNCVN

Amyloid nucleation score, 0.854 ± 0.2:
ESCWHLAEVRVIYGHRSMRP

Amyloid nucleation score, 0.898 ± 0.23:
FELFKKGRSI

Amyloid nucleation score, 0.509 ± 0.33:
EYSRMSSNQMVYSLVIFHNL

Amyloid nucleation score, 1.39 ± 0.064:
FICFNFHRKECVEKASSSCK

Amyloid nucleation score, 1.26 ± 0.095:
FILIYDRYRGF

Amyloid nucleation score, 1.16 ± 0.092:
FLNVKIQNHWRPYPFSPEYA

Amyloid nucleation score, 2.41 ± 0.082:
FGSHYSFRIQKVFFAVQRSP

Amyloid nucleation score, 0.466 ± 0.21:
FDRSSGKRMVL

Amyloid nucleation score, 2.32 ± 0.092:
FFLYSNIFQLS

Amyloid nucleation score, -0.589 ± 0.9:
FLTRFRDPT

Amyloid nucleation score, -0.292 ± 0.88:
EVDLLSVNPGVYWDLDWIWF

Amyloid nucleation score, 0.753 ± 0.25:
FKTCPKCSSSCCIFICPCSV

Amyloid nucleation score, 0.936 ± 0.11:
FFFVMSRRANVIGSLEDRSD

Amyloid nucleation score, -0.225 ± 0.53:
FAGEATVDTWTIFMCVIRGW

Amyloid nucleation score, 0.964 ± 0.17:
FLGDSTNGRRFFSEFRSEWG

Amyloid nucleation score, 0.173 ± 0.31:
FFVQSGIIEELYTW

Amyloid nucleation score, 1.33 ± 0.14:
FHLYCTIITLACCIMVWNCQ
